Experimental data as given in patent publication US20210017265A1 (RIKEN, published 2021).
Values belong to the molecule of their own block, whether it stands above or below them.

Experiments:
[1] = target: human TGF-β1-LAP (amino acid residues position-30 to position-390), recombinant, Example 4 (human) (UniProt P01137); test: SPR, Biacore T200; antibody immobilised on CM5, analyte 1.56-25 nM
[2] = target: complex of human TGF-β1 LAP-D and A2D109 antibody Fab fragment (human) (UniProt P01137); test: SPR, Biacore T200; antibody immobilised on CM5, analyte is the preformed LAP/A2D109 Fab complex, 1.56-25 nM
[3] = target: T1, human TGF-β1-LAP (amino acid residues position-30 to position-390), recombinant, Example 4 (human, UniProt P01137 30-390); test: SPR, Biacore T200; antibody immobilised on CM5, analyte 1.56-25 nM
T1 construct: Expressed in HEK293F cells behind an Igk signal with a TEV-cleavable His tag, which was cut off; Stated molecular weight 41653 Da; also called human TGF-β1 LAP-D; TGF-β LAP
Protocol: (§1) Each of the anti-LAP-D antibody (A10) and the BAM2462 antibody was immobilized on a Biacore (registered trademark) sensor chip Series S Sensor Chip CM5 (manufactured by GE Healthcare). The amounts of these antibodies immobilized were 2027 RU and 310 RU, respectively. Each of a solution of human TGF-β1 LAP and a solution of a complex of human TGF-β1 LAP and A2D109 Fab was diluted with a buffer composed of 10 mM of HEPES-NaOH (pH 7.5), 150 mM of NaCl, 3 mM of EDTA and 0.005% of Surfactant P-20 to prepare solutions having various concentrations. Each of these solutions was fed to Biacore (registered trademark) T200 (manufactured by GE Healthcare). The analyte concentration in each of the solutions and the measurement conditions are shown below. Measurement data were analyzed using Biacore (registered trademark) Evaluation software to acquire date on the affinity of each of the antibodies.

[4] = target: T2, complex of human TGF-β1 LAP-D and A2D109 antibody Fab fragment (human, UniProt P01137 30-390); test: SPR, Biacore T200; antibody immobilised on CM5, analyte is the preformed LAP/A2D109 Fab complex, 1.56-25 nM
T2 construct: Preformed complex, mixed 1:1 by moles and purified by gel filtration; Stated molecular weight 89514 Da; Used as the SPR analyte; also called TGF-β LAP-A2D109Fab; complex of human TGF-β1 LAP and A2D109 Fab
Protocol: as §1

[5] = target: T1, human TGF-β1-LAP (amino acid residues …); test: complex formation, gel filtration
Protocol: A Fab fragment (A2D109 Fab) was prepared from the A2D109 antibody using Pierce (trademark) Mouse IgG1 Fab and F(ab′)2 Preparation Kit (manufactured by Thermo Fisher). The concrete operation of the procedure was carried out in accordance with the manual included in the kit. A reaction solution produced by the procedure was purified by gel filtration using Superdex 200 Increase 10/300 GL (manufactured by GE Healthcare). A 50-kDa elution fraction was collected, and the fraction was used as A2D109 Fab. Purified recombinant TGF-β1-LAP and purified A2D109 Fab were mixed together at a molar mixing ratio of 1:1. A complex thus produced was purified by gel filtration chromatography (HiLoad 16/600 Superdex 200 pg, manufactured by GE Healthcare) using a column equilibrated with a buffer composed of 20 mM Tris-HCl (pH 8.0), 150 mM NaCl and 10% glycerol.

Sequence of complex of human TGF-β1 LAP-D and A2D109 antibody Fab fragment (human) (P01137 30-390, one chain of several): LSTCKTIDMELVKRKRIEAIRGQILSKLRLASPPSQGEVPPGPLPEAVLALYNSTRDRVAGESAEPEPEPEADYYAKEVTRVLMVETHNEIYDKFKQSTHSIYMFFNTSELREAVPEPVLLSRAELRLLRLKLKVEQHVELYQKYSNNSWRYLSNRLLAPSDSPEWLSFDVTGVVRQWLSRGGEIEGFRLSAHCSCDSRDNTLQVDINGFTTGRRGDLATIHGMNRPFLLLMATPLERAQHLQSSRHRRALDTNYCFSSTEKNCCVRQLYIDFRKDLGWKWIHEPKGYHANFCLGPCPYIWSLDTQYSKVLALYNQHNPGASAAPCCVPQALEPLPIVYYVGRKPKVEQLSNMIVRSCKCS
Sequence of human TGF-β1-LAP (amino acid residues position-30 to position-390), recombinant, Example 4 (human) (P01137 30-390): as the sequence (P01137 30-390, one chain of several) above
T1 sequence (P01137 30-390): as the sequence (P01137 30-390, one chain of several) above
T2 sequence (P01137 30-390, one chain of several): as above

Kd [1]: 0.0167 nM
koff [1]: 2.34e-05 s⁻¹
kon [1]: 1.4e+06 M⁻¹ s⁻¹
Kd [2]: 0.345 nM
koff [2]: 0.000154 s⁻¹
kon [2]: 447000 M⁻¹ s⁻¹
Molecule: anti-human LAP TGF-β1 antibody (BAM2462, manufactured by R&D Systems)

Kd [3]: 0.214 nM
koff [3]: 4.17e-05 s⁻¹
kon [3]: 195000 M⁻¹ s⁻¹
koff [4]: 0.000201 s⁻¹
kon [4]: 304000 M⁻¹ s⁻¹
B1: anti-LAP-D antibody (A10) (antibody, mouse IgG1, kappa, V domains shown)
VH: QVQLQQPGAELVRPGASVKLSCKTSGYSFTRFWMNWVRQRPGQGLEWIGMIHSSDSITRLNQKFKDKATLTLDYSSSTAYMQLSSPTSEDSAVYYCARGYDEYSAMDYWGQGTSVPVSS
VL: DIQMTQSPSSLSASLGERVSLTCRASHEISGYLGWLQRQPDGTIKRLIYAASTLDSGVPKRFSGSRSGSDYSLTISSLESEDFADYYCLQYASYPFTFGSGTKLEVKR
notes: Biotin-labelled when used as ELISA detection antibody; immobilised on a CM5 chip in SPR; also called isolated monoclonal antibody of the present embodiment

binding result [5]: binds
B2: A2D109 antibody Fab fragment (Fab, V domains shown)
VH: EVQLQQSGAELVRPGASVKLSCKASGYTFTSYWMNWVKQRPGQGLEWIGMIDPSDSETHYNQMFKDKATLTVDKSSSTAYMQLSSLTSEDSAVYYCVNWPYALDYWGQGTSVTVSS
VL: QIVLTQSPAIMSASPGEKVTMTCSASSSVSYMHWFQQKPGTSPKLWIYSTSNLASGVPARFSGSGSGTSYSLTISRMEAEDAATYYCQQRSSYPFTFGSGTKLEIKR
notes: Fab made from the mouse A2D109 antibody with a Mouse IgG1 Fab preparation kit; 50-kDa gel filtration fraction; the constant parts of the Fab are not; also called A2D109 Fab; A2D109Fab
